From US20050124544A1 come the findings set out here.

The target of test [1] is 2C11 human monoclonal antibody. Put plainly: competition ELISA: 2C11 preincubated with peptide at 2 (µM per paragraph 93), then on immobilised FVIII.
The target of test [2] is 2C11 human monoclonal antibody. Nature of the test: competition ELISA: 2C11 preincubated with peptide at 20 (µM per paragraph 93), then on immobilised FVIII. On the technique in general: An ELISA detects its analyte on a solid surface through an enzyme-linked reagent.
Test [3] has as its target 2C11 human monoclonal antibody. Nature of the test: competition ELISA: 2C11 preincubated with peptide at 200 (µM per paragraph 93), then on immobilised FVIII.
Test [4] addresses 2C11 human monoclonal antibody. Put plainly: competition ELISA: 2C11 preincubated with peptide at 0.002 (µM per paragraph 93), then on immobilised FVIII.
Test [5] concerns the target 2C11 human monoclonal antibody. Nature of the test: competition ELISA: 2C11 preincubated with peptide at 0.02 (µM per paragraph 93), then on immobilised FVIII.
Test [6] addresses 2C11 human monoclonal antibody. Nature of the test: cell-based or functional assay.

Where no end group is shown, it is not given here.

B1: peptide 104 (…) (peptide)
peptide: Ac-ECGSHAWGRRCK
modifications: cysteine pairing not given here
Take B1: the % inhibition (commonly the relative decrease from the control value, in per cent) in test [1] came to 13.4%; in test [2], 30.7%; in test [3] it was 63.7%; in test [4] it was 0%; in test [5], 0%.

B2: peptide 105 (…) (peptide)
peptide: Ac-CSKWHNRSKRHC
modifications: cysteine pairing not given here
In the case of B2, the % inhibition in test [1] is 10.3%; in test [2], 45%; in test [3], 75.6%; in test [4] it was 0%; in test [5] it was 0%.

B3: peptide 106 (…) (peptide)
peptide: Ac-CMKWSNRSSRWC
modifications: cysteine pairing not given here
B3: the % inhibition came out at 0% in test [1]; 22% in test [2]; 36.6% in test [3]; 0% in test [4]; 0% in test [5].

B4: peptide 109 (…) (peptide)
peptide: Ac-RCHAWSNRKSCV
modifications: cysteine pairing not given here
In the case of B4, the % inhibition was found to be 12.5% in test [1]; 37.5% in test [2]; 75% in test [3]; 0% in test [4]; 0% in test [5].

B5: peptide 103 (…) (peptide)
peptide: Ac-KCGRWSNRSSCT
modifications: cysteine pairing not given here
As to B5, the % inhibition in test [1] was 3.47%; in test [2], 28.3%; in test [3], 62.7%; in test [4], 0%; in test [5], 0%.

B6: peptide 107 (…) (peptide)
peptide: Ac-SCHAWSNRRTCR
modifications: cysteine pairing not given here
With B6, the % inhibition in test [1] was found to be 37.3%; in test [2], 80%; in test [3], 90.5%; in test [4], 0%; in test [5], 0%. This molecule came in with a Bethesda test: neutralization of the inhibiting activity of 2C11 (3.5 nM), IC50 in test [6] of 19 µM. Also, in test [6], the Bethesda test: peptide concentration for total neutralization of 2C11 (3.5 nM) worked out at 100 µM. Besides, the in vivo (FVIII-deficient mice): procoagulant activity of injected FVIII kept with 2C11 (16.7 nM) plus peptide 107 (650 µM) in test [6] was determined as 52%.

B7: peptide 108 (…) (peptide)
peptide: Ac-QCHTWSNRRSCL
modifications: cysteine pairing not given here
Take B7: the % inhibition in test [1] is 15.8%; in test [2], 26%; in test [3], 60.7%; in test [4] it was 0%; in test [5] it was 0%.
